Assay results reported in patent publication US20240399042A1.

Assays:
[1] = target: Ebola-Zaire-sGP: Soluble glycoprotein (sGP) released from infected cells (Ebola, species Zaire ebolavirus) (UniProt P60170)
Sequence of Ebola-Zaire-sGP: Soluble glycoprotein (sGP) released from infected cells (Ebola, species Zaire ebolavirus) (P60170 33-324 limits assumed): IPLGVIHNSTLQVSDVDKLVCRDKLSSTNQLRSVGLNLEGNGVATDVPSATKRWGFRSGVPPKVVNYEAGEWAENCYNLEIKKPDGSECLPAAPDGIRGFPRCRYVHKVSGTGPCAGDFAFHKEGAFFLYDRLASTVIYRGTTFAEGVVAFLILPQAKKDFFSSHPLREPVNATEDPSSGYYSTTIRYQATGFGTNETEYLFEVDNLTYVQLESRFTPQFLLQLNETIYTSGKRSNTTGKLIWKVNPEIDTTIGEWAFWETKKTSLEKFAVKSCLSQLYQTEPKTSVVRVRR

Sequence of Galanthus nivalis agglutinin (GNA) (P30617 24-128 limits assumed): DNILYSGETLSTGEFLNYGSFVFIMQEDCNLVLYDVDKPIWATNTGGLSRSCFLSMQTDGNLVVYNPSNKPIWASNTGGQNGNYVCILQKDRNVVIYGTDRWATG

In the case of “Galanthus nivalis agglutinin (GNA) (from UniProt P30617 24-128)”, the % Removal at 6 hours [1] was 97% and the % Removal (run of 3 hours) (Marburg-GP (Marburg)) was 60%.
